According to patent publication US20040170969A1 (published 2004):

T1: Flag-epitope-tagged murine Ras-GRF2 (murine, UniProt P70392 1-1189, limits assumed)
T1 construct: Bait; expressed stably (Clone 13, Clone 21) or transiently in human 293 cells; also called Flag-GRF2; FLAG-GRF2
T1 sequence (looked up): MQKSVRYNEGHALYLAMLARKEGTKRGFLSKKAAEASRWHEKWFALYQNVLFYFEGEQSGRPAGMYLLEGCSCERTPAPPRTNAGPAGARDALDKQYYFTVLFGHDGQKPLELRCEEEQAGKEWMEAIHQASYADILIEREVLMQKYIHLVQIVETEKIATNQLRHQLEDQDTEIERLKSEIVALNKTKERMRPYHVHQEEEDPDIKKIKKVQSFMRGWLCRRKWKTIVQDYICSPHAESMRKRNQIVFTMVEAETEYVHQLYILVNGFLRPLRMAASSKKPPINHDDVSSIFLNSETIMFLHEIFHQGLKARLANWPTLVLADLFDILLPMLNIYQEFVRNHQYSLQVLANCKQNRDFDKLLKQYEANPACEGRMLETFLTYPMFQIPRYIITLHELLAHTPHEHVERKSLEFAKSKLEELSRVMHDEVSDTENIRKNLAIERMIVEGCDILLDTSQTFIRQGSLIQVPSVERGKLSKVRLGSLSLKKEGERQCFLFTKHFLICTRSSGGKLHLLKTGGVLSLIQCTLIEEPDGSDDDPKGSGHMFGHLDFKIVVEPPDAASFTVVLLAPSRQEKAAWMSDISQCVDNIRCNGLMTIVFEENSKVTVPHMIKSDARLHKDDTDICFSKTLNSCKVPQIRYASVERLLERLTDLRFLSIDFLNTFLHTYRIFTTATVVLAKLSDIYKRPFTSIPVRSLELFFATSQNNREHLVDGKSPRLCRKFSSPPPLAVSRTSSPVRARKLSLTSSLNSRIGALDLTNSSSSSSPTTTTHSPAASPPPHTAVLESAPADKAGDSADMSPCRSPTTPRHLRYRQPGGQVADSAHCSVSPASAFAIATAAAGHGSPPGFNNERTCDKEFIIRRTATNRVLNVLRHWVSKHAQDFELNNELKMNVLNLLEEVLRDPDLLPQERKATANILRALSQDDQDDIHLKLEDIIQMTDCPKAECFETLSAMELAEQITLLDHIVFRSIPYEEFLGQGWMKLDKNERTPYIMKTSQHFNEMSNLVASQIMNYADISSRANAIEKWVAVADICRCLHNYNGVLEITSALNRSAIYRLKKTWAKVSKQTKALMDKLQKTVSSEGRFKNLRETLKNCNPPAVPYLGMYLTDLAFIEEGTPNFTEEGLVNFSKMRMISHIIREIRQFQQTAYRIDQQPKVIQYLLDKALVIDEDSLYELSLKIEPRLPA

B1: FLAG-PP2C (enzyme, human, UniProt O75688 1-479, looked up, not shown: small tags and cut ends)
chain: MGAFLDKPKTEKHNAHGAGNGLRYGLSSMQGWRVEMEDAHTAVVGIPHGLEDWSFFAVYDGHAGSRVANYCSTHLLEHITTNEDFRAAGKSGSALELSVENVKNGIRTGFLKIDEYMRNFSDLRNGMDRSGSTAVGVMISPKHIYFINCGDSRAVLYRNGQVCFSTQDHKPCNPREKERIQNAGGSVMIQRVNGSLAVSRALGDYDYKCVDGKGPTEQLVSPEPEVYEILRAEEDEFIILACDGIWDVMSNEELCEYVKSRLEVSDDLENVCNWVVDTCLHKGSRDNMSIVLVCFSNAPKVSDEAVKKDSELDKHLESRVEEIMEKSGEEGMPDLAHVMRILSAENIPNLPPGGGLAGKRNVIEAVYSRLNPHRESDGASDEAEESGSQGKLVEALRQMRINHRGNYRQLLEEMLTSYRLAKVEGEESPAEPAATATSSNSDAGNPVTMQESHTESESGLAELDSSNEDAGTKMSGEKI
notes: also called PP2C bait
B2: DKFZp434D174.1 (GI 7512558) (other, UniProt P57678 1-1058, looked up)
chain: MDLGPLNICEEMTILHGGFLLAEQLFHPKALAELTKSDWERVGRPIVEALREISSAAAHSQPFAWKKKALIIIWAKVLQPHPVTPSDTETRWQEDLFFSVGNMIPTINHTILFELLKSLEASGLFIQLLMALPTTICHAELERFLEHVTVDTSAEDVAFFLDVWWEVMKHKGHPQDPLLSQFSAMAHKYLPALDEFPHPPKRLRSDPDACPTMPLLAMLLRGLTQIQSRILGPGRKCCALANLADMLTVFALTEDDPQEVSATVYLDKLATVISVWNSDTQNPYHQQALAEKVKEAERDVSLTSLAKLPSETIFVGCEFLHHLLREWGEELQAVLRSSQGTSYDSYRLCDSLTSFSQNATLYLNRTSLSKEDRQVVSELAECVRDFLRKTSTVLKNRALEDITASIAMAVIQQKMDRHMEVCYIFASEKKWAFSDEWVACLGSNRALFRQPDLVLRLLETVIDVSTADRAIPESQIRQVIHLILECYADLSLPGKNKVLAGILRSWGRKGLSEKLLAYVEGFQEDLNTTFNQLTQSASEQGLAKAVASVARLVIVHPEVTVKKMCSLAVVNLGTHKFLAQILTAFPALRFVEEQGPNSSATFMVSCLKETVWMKFSTPKEEKQFLELLNCLMSPVKPQGIPVAALLEPDEVLKEFVLPFLRLDVEEVDLSLRIFIQTLEANACREEYWLQTCSPFPLLFSLCQLLDRFSKYWQLPKEKRCLSLDRKDLAIHILELLCEIVSANAETFSPDVWIKSLSWLHRKLEQLDWTVGLRLKSFFEGHFKCEVPATLFEICKLSEDEWTSQAHPGYGAGTGLLAWMECCCVSSGISERMLSLLVVDVGNPEEVRLFSKGFLVALVQVMPWCSPQEWQRLHQLTRRLLEKQLLHVPYSLEYIQFVPLLNLKPFAQELQLSVLFLRTFQFLCSHSCRDWLPLEGWNHVVKLLCGSLTRLLDSVRAIQAAGPWVQGPEQDLTQEALFVYTQVFCHALHIMAMLHPEVCEPLYVLALETLTCYETLSKTNPSVSSLLQRAHEQRFLKSIAEGIGPEERRQTLLQKMSSF
notes: also called gemin4; gemin 4
B3: FLAG-Ndr (cells treated with okadaic acid) (enzyme, not shown: small tags and cut ends)
chain: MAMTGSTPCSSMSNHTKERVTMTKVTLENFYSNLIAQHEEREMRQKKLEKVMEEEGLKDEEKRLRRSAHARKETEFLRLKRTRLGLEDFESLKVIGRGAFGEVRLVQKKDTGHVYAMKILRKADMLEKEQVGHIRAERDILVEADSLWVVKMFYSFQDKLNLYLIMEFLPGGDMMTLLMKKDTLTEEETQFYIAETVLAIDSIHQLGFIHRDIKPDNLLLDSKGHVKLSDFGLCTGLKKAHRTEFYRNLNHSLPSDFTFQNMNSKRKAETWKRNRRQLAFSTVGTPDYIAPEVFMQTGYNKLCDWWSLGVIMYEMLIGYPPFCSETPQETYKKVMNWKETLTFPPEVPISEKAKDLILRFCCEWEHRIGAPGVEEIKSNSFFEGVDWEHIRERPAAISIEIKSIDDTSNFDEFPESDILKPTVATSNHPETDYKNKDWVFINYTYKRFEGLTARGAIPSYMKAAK
notes: also called Ndr bait; active Ndr
B4: protein 4.1 isoB (GI 182074) (other, UniProt P11171-3 1-641, looked up)
chain: MHCKVSLLDDTVYECVVEKHAKGQDLLKRVCEHLNLLEEDYFGLAIWDNATSKTWLDSAKEIKKQVRGVPWNFTFNVKFYPPDPAQLTEDITRYYLCLQLRQDIVAGRLPCSFATLALLGSYTIQSELGDYDPELHGVDYVSDFKLAPNQTKELEEKVMELHKSYRSMTPAQADLEFLENAKKLSMYGVDLHKAKDLEGVDIILGVCSSGLLVYKDKLRINRFPWPKVLKISYKRSSFFIKIRPGEQEQYESTIGFKLPSYRAAKKLWKVCVEHHTFFRLTSTDTIPKSKFLALGSKFRYSGRTQAQTRQASALIDRPAPHFERTASKRASRSLDGAAAVDSADRSPRPTSAPAITQGQVAEGGVLDASAKKTVVPKAQKETVKAEVKKEDEPPEQAEPEPTEAWKVEKTHIEVTVPTSNGDQTQKKRERLDGENIYIRHSNLMLEDLDKSQEEIKKHHASISELKKNFMESVPEPRPSEWDKRLSTHSPFRTLNINGQIPTGEGPPLVKTQTVTISDNANAVKSEIPTKDVPIVHTETKTITYEAAQTDDNSGDLDPGVLLTAQTITSETPSSTTTTQITKTVKGGISETRIEKRIVITGDADIDHDQVLVQAIKEAKEQHPDMSVTKVVVHQETEIADE
notes: also called Erythroid protein 4.1 isoform B
B5: FLAG-Ndr (K118A) mutant fusion protein (enzyme, not shown: small tags and cut ends)
chain: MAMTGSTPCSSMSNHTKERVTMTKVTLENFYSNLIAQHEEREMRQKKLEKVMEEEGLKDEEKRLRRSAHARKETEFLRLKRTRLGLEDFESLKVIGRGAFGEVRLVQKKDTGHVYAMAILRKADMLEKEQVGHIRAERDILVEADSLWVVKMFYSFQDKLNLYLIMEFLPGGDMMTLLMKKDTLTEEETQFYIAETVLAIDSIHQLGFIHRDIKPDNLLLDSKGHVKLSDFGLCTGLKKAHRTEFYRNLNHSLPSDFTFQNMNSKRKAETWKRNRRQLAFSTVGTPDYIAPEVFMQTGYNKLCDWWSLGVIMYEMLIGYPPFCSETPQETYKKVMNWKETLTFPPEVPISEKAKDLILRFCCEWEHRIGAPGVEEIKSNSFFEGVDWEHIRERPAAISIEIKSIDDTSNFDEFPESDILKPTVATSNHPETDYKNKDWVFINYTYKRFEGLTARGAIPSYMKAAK
notes: also called K118A Ndr

How the values were obtained:
[1] = target: B2; assay: anti-FLAG co-IP, MS
[2] = target: T1, Flag-epitope-tagged murine Ras-GRF2; assay: anti-FLAG co-IP, MS

Row | binding result [1] | binding result [2] | Binder
1 | no binding |  | B1
2 |  | no binding | B2
3 | no binding |  | B3
4 |  | no binding | B4
5 | no binding |  | B5
